Data on eight molecules can be found in paper PMC8083607 (National Science Review, 2021).

Among the targets are SARS-CoV S2 (SARS-CoV, strain not named (reference …, UniProt P59594)); MERS-CoV S2 (MERS-CoV, strain not named (entry: …, UniProt K9N5Q8)); SARS-CoV RBD (Severe acute respiratory syndrome …, UniProt P59594); SARS-CoV NTD (SARS-CoV, strain not named (reference …, UniProt P59594)).
What all share (assay): ELISA
Common to all, as to conditions: both partners purified
Background: ELISA stands for enzyme-linked immunosorbent assay.

Experiment [1] concerns the target SARS-CoV-2 S2 (recombinant) (SARS-CoV-2 Wuhan-Hu-1 (MN908947.3 used …, UniProt P0DTC2)).
The target in experiment [2] is T1, SARS-CoV-2 NTD (recombinant, limits not stated) (SARS-CoV-2 Wuhan-Hu-1 (MN908947.3), UniProt P0DTC2).
T1 construct: also called N-terminal domain

Substitutions are numbered along the chain they refer to.

Sequence of MERS-CoV S2 (MERS-CoV, strain not named (K9N5Q8 whole entry, looked up): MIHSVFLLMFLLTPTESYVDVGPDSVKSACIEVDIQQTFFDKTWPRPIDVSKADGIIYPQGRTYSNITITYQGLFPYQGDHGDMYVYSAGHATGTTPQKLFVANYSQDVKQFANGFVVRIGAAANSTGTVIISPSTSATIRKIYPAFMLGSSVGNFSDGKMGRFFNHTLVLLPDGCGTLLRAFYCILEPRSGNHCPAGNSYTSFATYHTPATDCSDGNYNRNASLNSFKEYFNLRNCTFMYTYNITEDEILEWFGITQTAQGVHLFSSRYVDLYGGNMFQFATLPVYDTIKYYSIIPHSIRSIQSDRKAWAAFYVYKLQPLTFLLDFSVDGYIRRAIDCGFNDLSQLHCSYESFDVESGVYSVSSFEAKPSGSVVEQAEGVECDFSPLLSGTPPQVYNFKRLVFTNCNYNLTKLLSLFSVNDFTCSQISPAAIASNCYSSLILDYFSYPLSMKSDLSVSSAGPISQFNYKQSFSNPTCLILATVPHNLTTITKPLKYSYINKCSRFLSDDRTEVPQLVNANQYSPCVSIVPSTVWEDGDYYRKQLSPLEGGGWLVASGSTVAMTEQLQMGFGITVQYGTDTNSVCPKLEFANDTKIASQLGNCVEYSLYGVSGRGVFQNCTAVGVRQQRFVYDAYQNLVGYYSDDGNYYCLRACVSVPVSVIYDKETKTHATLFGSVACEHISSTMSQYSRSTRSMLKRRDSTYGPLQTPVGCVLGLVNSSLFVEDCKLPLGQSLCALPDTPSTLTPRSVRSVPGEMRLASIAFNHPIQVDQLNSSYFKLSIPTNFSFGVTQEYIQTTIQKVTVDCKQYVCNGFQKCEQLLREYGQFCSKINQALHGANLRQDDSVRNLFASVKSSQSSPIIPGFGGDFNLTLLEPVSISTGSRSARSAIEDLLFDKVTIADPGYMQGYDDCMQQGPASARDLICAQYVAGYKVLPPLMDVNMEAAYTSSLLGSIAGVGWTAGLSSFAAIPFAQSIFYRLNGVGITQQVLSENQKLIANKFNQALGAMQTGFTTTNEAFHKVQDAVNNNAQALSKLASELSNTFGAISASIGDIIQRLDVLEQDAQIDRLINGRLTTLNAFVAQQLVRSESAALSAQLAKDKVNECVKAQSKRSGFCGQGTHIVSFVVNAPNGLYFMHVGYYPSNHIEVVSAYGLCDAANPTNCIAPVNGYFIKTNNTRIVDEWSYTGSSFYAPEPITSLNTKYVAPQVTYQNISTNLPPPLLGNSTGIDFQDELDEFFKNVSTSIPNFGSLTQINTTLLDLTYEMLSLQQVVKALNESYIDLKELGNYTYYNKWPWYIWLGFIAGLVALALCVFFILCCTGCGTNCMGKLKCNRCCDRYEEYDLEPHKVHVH

B1: FC120 (antibody, V domains shown)
VH: EVQLLESGAEVKKPGASVKVSCKASGYTFTSYYMHWVRQAPGQGLEWMGIINPSGGSTSYAQKFQGRVTMTRDTSTSTVYMELSSLRSEDTAVYYCARGGGHALDIWGQGTMVTVSS
VL: QSVLTQPPSVSGAPGQKVTISCSGSSSNIGNNYVSWYQQLPGTAPKLLIYDNNKRPSGIPDRFSGSKSGTSATLGITGLQTGDEADYYCGTWDSSLSAWVFGGGTKLTVL
As for B1, the binding result (in experiment [1]; with SARS-CoV S2; with MERS-CoV S2) was “binds” each time.

B2: FC05 (antibody, V domains shown)
VH: VQLLEQSGAEVKKPGASVRVSCKVSGYTLPEVAMHWVRQAPGKGLEWMGGFDPEDGETMYAQKFQGRVTMTEDTSTDTAYMELSSLRSEDTAVYYCATTTPFSSSYWFDPWGQGTLVTVSS
VL: B1 VL with P7A, W99V
notes: also called FC05 mAb
For B2, the binding result in experiment [2] is recorded as “binds”.

B3: FC11 (antibody, V domains shown)
VH: EVQLLESGGGVVQPGRSLRLSCAASGFTFSYYGMHWVRQAPGTGLEWVAVISYDGSNEYYADSVKGRFTISRDNSKNTLYLQMNSLRAEDTAVYYCAKAMFLGDSSGLTGLDMDVWGQGTTVTVSS
VL: DIELTQSPGTLSLSPGERATLSCRASQSVSSYLAWYQQKPGQAPRLLIYDASNRATGIPARFSGSGSGTDFTLTISSLEPEDFALYYCQQRGNWPPTFGGGTKLEIK
Regarding B3, in the experiment with SARS-CoV RBD, the binding result is given as “binds”.

B4: FC07 (antibody, V domains shown)
VH: EVQLLESGGGLVQPGGSLRLSCAASGFTFGSYAMSWVRQAPGKGLEWVSSISGSGGSTYYADSAKGRFTISRDNSKNTLYLQMNSLRAEDTAVYYCAKSPNYDILTGYYNWAGYYFDYWGQGTLVTVSS
VL: DIELTQSPGTLSLSPGDRATLSCRASRGVSSNSLAWYRQRPGESPRLVISGASTRATGIPERFSGSGSGTDFSLSISRLQPEDFAVYYCQQYGSFPFTFGPGTTVDV
Turning to B4, the binding result (in experiment [2]; with SARS-CoV NTD) was “binds” throughout.

B5: FC06 (antibody, V domains shown)
VH: EVQLLESGGGVVQPGRSLRLSCAASGFTFSSYAMHWVRQAPGEGLEWVAVISYDGSNKYYADSVKGRFTISRDNSKNTLYLQMNSLRAGDTAVYYCARLNYYGSGFYYRLGDDYWGQGTLVTVSS
VL: DIELTQSPSSLSASEGDRVTITCRASQGIRNDLGWYQQKPGKAPKRLIYGAPSLQSGVPSRFSGSGSGTEFTLTISTLQPEDSATYYCLQHNKYPWTFGQGTKVEIK
Regarding B5, the binding result in experiment [2] is reported as “binds”.

B6: FC124 (antibody, V domains shown)
VH: EVQLLESGGGVVQPGRSLRLSCAASGFTFSSYAMHWVRQAPGKGLEWVALISYDGINKYYADSVNGRFTISRDNSKYTLYLQMNSLRAEDTAVYYCARAHRGSYYYGMDVWGQGTMVTVSS
VL: DIELTQSPGTLSLSPGERATLYCRASQSVSSSYLAWYQQKPGQAPRLLIYGAFGRAAGIPDRFRGSGSGTQFTLTISRLEPEDSAVYFCQQYGQSPLYSFGQGTKLEIK
Take B6: the binding result (in experiment [1]; with SARS-CoV S2; with MERS-CoV S2) was “binds” each time.

B7: FC122 (antibody, V domains shown)
VH: B6 VH
VL: DIELTQSPSSLSASVGDSVTITCRGSQIISRYLNWYQQKPGKAPKLLIYAASTLQSGVPSRFSGSGSGTEFTLSISSLEPEDFATYYCQQSYAIPYTFGQGTRLEI
Consider B7, for which the binding result in experiment [1] was “binds”.

B8: FC118 (antibody, V domains shown)
VH: B6 VH with L50V, I56S, N65K, Y77N, H100R, R101G, Y105L, T115A
VL: DIELTQSPSSLAASVGDTVTITCRASQTIGKYLTWYQKKPGRAPDLLIYAASRLQSGVPSRFSGRASGTEFTLTISSLQPEDFATYFCQHTYRTLSFGPGTKVDLK
B8: the binding result (in experiment [1]; in the experiment with SARS-CoV S2; with MERS-CoV S2) was “binds” throughout.
